This assay has as its target T1, Plasmalemma vesicle-associated protein (PV1), recombinant mouse (Mus musculus, UniProt Q91VC4).
T1 construct: plasmalemma vesicle-associated protein (PV1), mouse, recombinant; also called mouse PV1; recombinant mouse PV1
Briefly: SPR; ProteOn XPR36; mouse PV1 amine-coupled to a GLC chip at ~200 RU; antibodies injected at 100 μl/min; 25 °C, PBS pH 7.2; 1:1 Langmuir model. To be noted: both partners purified.

The Kd is the constant that tells how readily two partners part at equilibrium.

T1 sequence (Q91VC4 whole entry): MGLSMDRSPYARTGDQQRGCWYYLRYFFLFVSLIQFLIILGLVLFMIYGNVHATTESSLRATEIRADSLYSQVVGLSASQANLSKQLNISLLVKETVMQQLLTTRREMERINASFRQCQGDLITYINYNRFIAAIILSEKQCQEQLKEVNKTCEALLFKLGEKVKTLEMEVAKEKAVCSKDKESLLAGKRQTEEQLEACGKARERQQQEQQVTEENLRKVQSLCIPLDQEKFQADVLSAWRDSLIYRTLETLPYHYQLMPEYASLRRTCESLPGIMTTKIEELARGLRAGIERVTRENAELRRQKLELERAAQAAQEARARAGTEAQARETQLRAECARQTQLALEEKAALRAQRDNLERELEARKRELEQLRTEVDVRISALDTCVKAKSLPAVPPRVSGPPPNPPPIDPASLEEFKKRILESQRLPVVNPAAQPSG

B1: αPV1 IgG (de novo sequenced Meca32 variant as a human IgG1 chimeric antibody) (antibody, V domains shown)
VH: EVQLVESGGGLVQPGRSMKLSCAASGFTFSDYYMAWVRQAPKKGLEWVASISYEGNKTYYGDSVKGRFTISRDNAKSILYLQMNSLKSEDTATYYCARQSYSSYLFDYWGQGVM
VL: DIQMTQTPSSMSASLGERVTLSCGTSQGVNLFLNWYQQKPDGTIKPLIFFTSHLQSGVPSRFSGSGSGTAYSLTISSLEPEDFAVYYCQQYDSSPPTFGGGTKLYLK
notes: human IgG1 heavy-chain constant region (chimeric antibody); VL of the chosen Meca32 variant; light-chain constant region; Human IgG1 chimera of rat variable domains; also called anti-PV1 antibody; αPV1 mAb; source: HEK293F, transient, purified (protein A; SEC if necessary)
B1: the Kd came out at 0.5 nM.
